The record followed here is PMC8276268 (Biochemistry, 2012).

The target of test [1] is ABCG2^Myc-ECL3* (full-length ABCG2 with ECL3 replaced by ECL1) (human) (UniProt Q9UNQ0). The test is described as follows: cross-linking.
Test [2] has as its target ABCG2^Myc-L3*TM6* (full-length ABCG2 with ECL3—TM6 replaced by ECL1—TM2) (human) (UniProt Q9UNQ0). The test is described as follows: cross-linking.
Test [3] has as its target ABCG2^Myc-TM5* (ABCG2 with TM5 replaced by TM1) (human) (UniProt Q9UNQ0). Nature of the test: cross-linking.
The target of test [4] is ABCG2^Myc-TM5*L3* (full-length ABCG2 with TM5—ECL3 replaced by TM1—ECL1) (human) (UniProt Q9UNQ0). The test is described as follows: cross-linking.
The target in test [5] is ABCG2^Myc-TM6* (ABCG2 with TM6 replaced by TM2) (human) (UniProt Q9UNQ0). The test is described as follows: cross-linking.
Test [6] concerns the target T1, HA-tagged full-length ABCG2 (ABCG2^HA-WT) (human, UniProt Q9UNQ0 1-655, R482G).
T1 sequence (looked up): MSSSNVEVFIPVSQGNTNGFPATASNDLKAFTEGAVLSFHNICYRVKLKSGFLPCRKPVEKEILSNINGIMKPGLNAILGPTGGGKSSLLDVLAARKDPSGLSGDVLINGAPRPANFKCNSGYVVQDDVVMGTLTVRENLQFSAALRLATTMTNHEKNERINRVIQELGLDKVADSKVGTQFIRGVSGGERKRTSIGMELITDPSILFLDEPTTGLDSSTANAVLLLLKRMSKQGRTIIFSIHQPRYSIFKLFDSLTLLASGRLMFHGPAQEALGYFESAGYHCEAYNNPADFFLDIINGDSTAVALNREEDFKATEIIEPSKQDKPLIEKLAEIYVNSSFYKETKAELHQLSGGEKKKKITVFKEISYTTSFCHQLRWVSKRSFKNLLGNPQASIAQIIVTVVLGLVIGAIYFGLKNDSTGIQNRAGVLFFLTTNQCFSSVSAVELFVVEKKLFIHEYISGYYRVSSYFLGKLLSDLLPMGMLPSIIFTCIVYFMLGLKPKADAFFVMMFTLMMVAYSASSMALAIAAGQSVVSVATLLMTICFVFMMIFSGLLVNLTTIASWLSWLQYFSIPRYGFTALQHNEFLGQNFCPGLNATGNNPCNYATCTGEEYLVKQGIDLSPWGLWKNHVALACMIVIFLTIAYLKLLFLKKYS
The test is described as follows: co-IP.

Regarding “ABCG2^Myc-ECL3* (full-length ABCG2 with ECL3 replaced by ECL1) (from UniProt Q9UNQ0 1-655) (natural protein)”, in test [1], the percent of the protein cross-linked as dimer turned out to be 26%, the percent of the protein cross-linked as pentamer is 43% and the percent of the protein cross-linked as trimer turned out to be 11%.

“ABCG2^Myc-L3*TM6* (full-length ABCG2 with ECL3—TM6 replaced by ECL1—TM2) (from UniProt Q9UNQ0 1-655) (natural protein)”: in test [2], the percent of the protein cross-linked as dimer was 11% and the percent of the protein cross-linked as hexamer came to 89%.

In test [3], “ABCG2^Myc-TM5* (ABCG2 with TM5 replaced by TM1) (from UniProt Q9UNQ0 1-655) (natural protein)” came in with a percent of the protein cross-linked as dimer of 31%, a percent of the protein cross-linked as tetramer of 10% and a percent of the protein cross-linked as trimer of 32%.

In test [4], “ABCG2^Myc-TM5*L3* (full-length ABCG2 with TM5—ECL3 replaced by TM1—ECL1) (from UniProt Q9UNQ0 1-655) (natural protein)” gave a percent of the protein cross-linked as dimer of 29%, a percent of the protein cross-linked as pentamer of 51% and a percent of the protein cross-linked as trimer of 8%.

In test [5], “ABCG2^Myc-TM6* (ABCG2 with TM6 replaced by TM2) (from UniProt Q9UNQ0 1-655) (natural protein)” displayed a percent of the protein cross-linked as dimer of 18%, a percent of the protein cross-linked as tetramer of 49% and a percent of the protein cross-linked as trimer of 29%.

B1: Myc-tagged wild-type ABCG2 (ABCG2^Myc-WT) (natural protein, human, UniProt Q9UNQ0 1-655, looked up)
chain: T1 sequence (looked up)
On to B1, for which, in test [6], the “Co-IP with WT, relative to the wild-type construct” value worked out at 100%.
